Measured values from publication PMC5095173, “Disulfide-activated protein kinase G Iα regulates cardiac diastolic relaxation and fine-tunes the Frank–Starling response” (Nature Communications, 2016).

B1: Lrpprc pS656 (protein, UniProt Q5SGE0 78-1392, looked up)
Leucine-rich PPR …: SGSQFDWALMRLDNSVRRTGRITKGLLQKVFESTCRSGSPGSNQALLLLRSCGSLLPELSLAERTEFAHKIWDKLQQLGTVYDVSHYNALLKVYLQNEYRFSPTDFLAKMEGANIQPNRVTYQRLIAAYCSVGDIEGASKILGFMKTRDLPITEAVFSALVTGHARAGDMESAENILTVMKQAGIEPGPDTYLALLNAHAEKGDIDHVKQILEKVEKSDHYFMDRDFLQIIVSFSKAGYPQYVSEILEKITYERRSIPDAMNLILLLVTEKLEDTAFQVLLALPLARDETSSSFGSFFLRHCVTMDTPAEKLIDYCKRLRDAKVHSSSLQFTLHCALQANKTALAKAVMEALRDEGFPIRTHYFWPLLVGHQKTKNVQGIIDILKIMKEMGVDPDQETYINYVFPCFGSVQSARAALQENKCLPKSTTFAQAEVRNEAINGNLQNILSFLESNALPFSFNSLRGSLILGFRRSMNIDLWSKITELLYKDDRYCQKPPGPTEAVGYFLYNLIDSMSDSEVQAKEERLRQYFHQLREMNVKVSENIYKGICNLLDNYHVPELIKDVKVLVDREKIDSRKTSQFTSSDLESTLEKLKAEGHPVGDPLKQLILLLCSEENMQKALEVKAKYESDMVIGGYAALINLCCRHDNAEDALNLKQEFDRLDPSAVLDTAKYVALVKVLGKHGRVQDAINILKEMKEKDVVIKDAAVLSFFHILNGAALRGEIETVKQLHEAIVTLGLAKPSSNISFPLVTVHLEKDDLPAALEASIACHEKYKVLPRIHDVLCKLIEKGETDLIQKAMDFVSQEQGEMSMLYDLFFAFLQTGNYKEAKKIIETPGIRARPTRLQWFCDRCIANNQVETLEKLVELTEKLFECDRDQMYYNLLKLYKISGDWQRADAVWNKMQEENLIPRERTLRLLAGILKTSNQEVPFDVPELWFGDDRSSLSSSSPSAGDTVTEKMLLSDCRLKKSKDAYNIFLKAEKQDVVFSSEAYSTLVGLLLSKDDFTRAMHVKDFAETHIKGFTLNGAASSLLIIAQVRRDYLKVALETLKAALDLEQVPSELAVTRLIQALALQGDVKSIETIQKMVKGLDAIELSRMVFINNIALAQMKNNEIDAAIENIEHMLASENQTVEHQYFGLSYLFRKVIEEQMEPALEKLSIMSERLANQFALYKPVTDLFLQLVDSGKVDEARALLERCGAIAEQTSILSVFCLRTSQKPKKAPVLKTLLELIPELRENDRVYSCSMKSYVADKDVASAKALYEHLTAKNMKLDDLFLKRYASLLKDVGEPVPFTEPPESFGFYIKQLKEARENPS
modifications: phosphorylated at S656
B2: Matr3 pT150 (protein, UniProt P43244 2-845, looked up)
Matrin-3: SKSFQQSSLGRDSQGHGRDLSAAGIGLLAAATQSLSMPASLGRMNQGTARLASLMNLGMSSSLNQQGAHSALSSASTSSHNLQSIFNIGSRGPLPLSSQHRGDTDQASNILASFGLSARDLDELSRYPEDKITPENLPQILLQLKRRRTEEGPTLSYGRDGRSATREPPYRVPRDDWEEKRHFRRDSFDDRGPSLNPVLDYDHGSRSQESGYYDRMDYEDDRLRDGERCRDDSFFGETSHNYHKFDSEYERMGRGPGPLQERSLFEKKRGAPPSSNIEDFHGLLPKGYPHLCSICDLPVHSNKEWSQHINGASHSRRCQLLLEIYPEWNPDNDTGHTMGDPFMLQQSTNPAPGILGPPPPSFHLGGPAVGPRGNLGAGNGNLQGPRHMQKGRVETSRVVHIMDFQRGKNLRYQLLQLVEPFGVISNHLILNKINEAFIEMATTEDAQAAVDYYTTTPALVFGKPVRVHLSQKYKRIKKPEGKPDEKFDQKQELGRVIHLSNLPHSGYSDSAVLKLAEPYGKIKNYILMRMKSQAFIEMETREDAMAMVDHCLKKALWFQGRCVKVDLSEKYKKLVLRIPNRGIDLLKKDKSRKRSYSPDGKESPSDKKSKTDGAQKTENPAEGKEQEEKSGEDGEKDTKDDQTEQEPSMLLESEDELLVDEEEAAALIESGSSVGDETDLANLGDVSSDGKKEPSDKAVKKDASATSKKKLKKVDKIEELDQENEAALENGIKNEENTEPGAESAENADDPNKDASDNSDGQNDENKEDYTIPDEYRIGPYQPNVPGGIDYVIPKTGFYCKLCSLFYTNEEVAKNTHCSSLPHYQKLKKFLNKLAEERRQKKES
modifications: phosphorylated at T150
B3: Matr3 pS188 (protein, UniProt P43244 2-845, looked up)
Matrin-3: B2 Matrin-3
modifications: phosphorylated at S188
B4: Jph2 pS240 (protein, UniProt Q2PS20 1-692, looked up)
Junctophilin-2: MSGGRFDFDDGGAYCGGWEGGKAHGHGLCTGPKGQGEYSGSWNFGFEVAGVYTWPSGNTFEGYWSQGKRHGLGIETKGRWLYKGEWTHGFKGRYGIRQSTNSGAKYEGTWNNGLQDGYGTETYADGGTYQGQFTNGMRHGYGVRQSVPYGMAVVVRSPLRTSLSSLRSEHSNGTVAPDSPAADGPTLPLPPVPRGGFALSLLATAEAARPPGLFTRGALLGRLRRSESRTSLGSQRSRLSFLKSELSSGASDAASTGSLAEGAEGPDDAAAPFDADIDATTTETYMGEWKNDKRSGFGVSERSSGLRYEGEWLDNLRHGYGRTTLPDGHREEGKYRHNVLVKGTKRRVLPLKSNKVRQKVEHGVEGAQRAAAIARQKAEIAASRTSHAKAKAEAAEQAALAANQESNIARTLAKELAPDFYQPGPEYQKRRLLQEILENSESLLEPRERGPGTGLPERPRESPQLHERETPQPEGGPPSPAGTPPQPKRPRPGSSKDGLLSPGAWNGEPGGEGSRPATPSDGAGRRSPARPASEHMAIEALQPPPAPSREPEVALYRGYHSYAVRTGPPEPPPLEDEPEPEPEVPRSDSEPPSPVSATVQEEESPAPRSRVPAKPATLEPKPIVPKAEPKAKARKTEARGLSKAGAKKKGRKEVAQEAEAEVEVEEVPNTVLICMVILLNIGLAILFVHLLT
modifications: phosphorylated at S240
B5: Rrad pS25 (protein, UniProt P55043 1-306, looked up)
GTP-binding protein RAD: MTLNGGSGAGGSRSAGRERDRRRGSTPWGPAPPLHRRSMPVDERDLQAALTPGSLAATAAGTRTQGQRLDWPEGSSDSLSSGDSGSEDGVYKVHAAGAPGVGKSALARIFGGVEDGPEAEAAGHTYDRSITVDGEEASLMVYDIWEQDGGCWLPGHCMAMGDAYVIVYSITDKGSFEKASELRVQLRARRQTDVPIILVGNKSDLVRSREVSVDEGRACAEVFDCKFIETSAALHHNVQALFEGVVRQIRLRRDSKEDNARRQAGTRRRESLGKKAKLFLGRIVARNSRKMAFLAKSKSCHDLSVL
modifications: phosphorylated at S25
B6: Hmga1 pS36 (protein, UniProt P17095 2-107, looked up)
High mobility group protein …: SESGSKSSQPLASKQEKDGTEKRGRGRPRKQPPVSPGTALVGSQKEPSEVPTPKRPRGRPKGSKNKGAAKTRKVTTAPGRKPRGRPKKLEKEEEEGISQESSEEEQ
modifications: phosphorylated S36
B7: Gpsm1 pS567 (protein, UniProt Q9R080 1-673, looked up)
G-protein-signaling modulator …: MASPAPPAAEELPGPAARRLYSRMEASCLELALEGERLCKAGDFKAGVAFFEAAVQVGTEDLKTLSAIYSQLGNAYFYLKEYARALQFHKHDLLLARTIGDRMGEAKASGNLGNTLKVLGRFDEAIVCCQRHLDIAQEQGDKVGEARALYNIGNVYHAKGKQLSWNAAQDPGHLPPDVRETLHRASEFYERNLSLVKELGDRAAQGRAYGNLGNTHYLLGNFTEATTFHKERLAIAKEFGDKAAERRAYSNLGNAHIFLGRFDVAAEHYKKTLQLSRQIRDQAVEAQACYSLGNTYTLLQDYERAAEYHLRHLVIAQELADRVGEGRACWSLGNAYVSMGSPAQALTFAKKHLQISQEIGDRNGELTARMNIAHLQLALGRLTSPAAAEKPDLAGYEAQGARPKRTQRLSAETWDLLRLPLDREQNGETHHTGDWRGPSRDSLPLPMRSRKYQEGPDAIERRPREGSHSPLDSADVRVQVPRTGIPRAPSSDEECFFDLLSKFQSSRMDDQRCPLEEGQAGAAEATAAPTLEERAAQPSVTASPQTEEFFDLIASSQSRRLDDQRASVGSLPGLRITLNNVGHLRGDGDPQEPGDEFFNMLIKYQSSRIDDQRCPPPDVLPRGPTMPDEDFFSLIQRVQAKRMDEQRVDLAGSPDQEASGLPDPRQQCPPGAS
modifications: phosphorylated at S567
B8: Hspb6 pS16 (protein, UniProt P97541 1-162, looked up)
Heat shock protein beta-6: MEIRVPVQPSWLRRASAPLPGFSTPGRLFDQRFGEGLLEAELASLCPAAIAPYYLRAPSVALPTAQVPTDPGYFSVLLDVKHFSPEEISVKVVGDHVEVHARHEERPDEHGFIAREFHRRYRLPPGVDPAAVTSALSPEGVLSIQATPASAQASLPSPPAAK
modifications: phosphorylated at S16
B9: Hspb1 pS9 (protein, UniProt P14602 1-209, looked up)
Heat shock protein beta-1: MTERRVPFSLLRSPSWEPFRDWYPAHSRLFDQAFGVPRLPDEWSQWFSAAGWPGYVRPLPAATAEGPAAVTLAAPAFSRALNRQLSSGVSEIRQTADRWRVSLDVNHFAPEELTVKTKEGVVEITGKHEERQDEHGYISRCFTRKYTLPPGVDPTLVSSSLSPEGTLTVEAPLPKAVTQSAEITIPVTFEARAQIGGPEAGKSEQSGAK
modifications: phosphorylated S9

Test system: PKGIα (analogue-sensitive C42S/M438G), cGMP-activated
Assay: Chemical genetic phosphoproteomic screen, cGMP-activated PKGIα C42S/M438G versus unactivated control
Format: biochemical, human PKGIα; substrates in rat heart homogenate
Conditions: control = PKGIα C42S/M438G
Method in brief: (§1)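 Analogue-sensitive human PKGIα mutants (M438G, air-oxidized to disulfide dimer; C42S/M438G, cGMP-activated), expressed in 293-F cells, thiophosphorylate substrates in rat left-ventricle lysate (20 mg ml) using N6-alkylated ATPγS. Thiophosphopeptides are recovered by covalent capture and identified with sites by LC–MS/MS, each compared against an unactivated control.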

Molecule	log2 fold change cGMP vs Control
B1	4.57
B2	3.582
B3	1.38
B4	0.1615
B5	-0.2363
B6	4.39
B7	2.926
B8	2.607
B9	1.482

Test system: PKGIα (analogue-sensitive M438G), disulfide-activated
Assay: Chemical genetic phosphoproteomic screen, disulfide-activated PKGIα M438G versus unactivated control
Format: biochemical, human PKGIα; substrates in rat heart homogenate
Conditions: control = PKGIα C42S/M438G
Method in brief: as §1

Molecule	log2 fold change Disulfide vs Control
B1	0.7702
B2	1.381
B3	-0.9169
B4	0.2694
B5	-0.2493
B6	1.6764
B7	1.042
B8	1.245
B9	-0.3759
